Experimental data from article PMC4119789.

Molecular target: H3K4AK9me2 peptide
Assay: ITC

fold weaker affinity than for the H3K9me2 peptide: 30 fold
B1: SAWADEE domain of atSHH1 (residues 125-258) (domain or fragment)
chain: ADLAFEAKSARDYAWYDVSSFLTYRVLRTGELEVRVRFSGFDNRHDEWVNVKTSVRERSIPVEPSECGRVNVGDLLLCFQEREDQALYCDGHVLNIKRGIHDHARCNCVFLVRYELDNTEESLGLERICRRPEE
